Reference: patent publication US9908923 (MEDICAL COLLEGE OF WISCONSIN, dated 2018)
Non-standard residues stand in square brackets, D forms with d. sY = N[C@@H](Cc1ccc(OS(=O)(=O)O)cc1)C(=O)O

B1: 4ISIsYTSD10 (sTyr7 sulfopeptide) (peptide)
peptide: Ac-ISI[sY]TSD-NH2
SMILES: CC[C@H](C)[C@H](NC(C)=O)C(=O)N[C@@H](CO)C(=O)N[C@H](C(=O)N[C@@H](Cc1ccc(OS(=O)(=O)O)cc1)C(=O)N[C@H](C(=O)N[C@@H](CO)C(=O)N[C@@H](CC(=O)O)C(N)=O)[C@@H](C)O)[C@@H](C)CC
notes: Synthetic CXCR4 heptapeptide, residues 4-10
B2: 18SGDsYDSM24 (sTyr21 sulfopeptide) (peptide)
peptide: Ac-SGD[sY]DSM-NH2
SMILES: CSCC[C@H](NC(=O)[C@H](CO)NC(=O)[C@H](CC(=O)O)NC(=O)[C@H](Cc1ccc(OS(=O)(=O)O)cc1)NC(=O)[C@H](CC(=O)O)NC(=O)CNC(=O)[C@H](CO)NC(C)=O)C(N)=O
notes: Synthetic CXCR4 heptapeptide, residues 18-24; also called sulfated Tyr21 peptide
B3: 18SGDYDSM24 (Tyr21 peptide) (peptide)
peptide: Ac-SGDYDSM-NH2
notes: Synthetic CXCR4 heptapeptide, residues 18-24; also called unsulfated Tyr21 peptide
B4: FLAG-hCXCR4 Ile4Ala/Ile6Ala (receptor, human, UniProt P61073 1-352, looked up)
chain: MEGASAYTSDNYTEEMGSGDYDSMKEPCFREENANFNKIFLPTIYSIIFLTGIVGNGLVILVMGYQKKLRSMTDKYRLHLSVADLLFVITLPFWAVDAVANWYFGNFLCKAVHVIYTVNLYSSVLILAFISLDRYLAIVHATNSQRPRKLLAEKVVYVGVWIPALLLTIPDFIFANVSEADDRYICDRFYPNDLWVVVFQFQHIMVGLILPGIVILSCYCIIISKLSHSKGHQKRKALKTTVILILAFFACWLPYYIGISIDSFILLEIIKQGCEFENTVHKWISITEALAFFHCCLNPILYAFLGAKFKTSAQHALTSVSRGSSLKILSKGKRGGHSSVSTESESSSFHSS
notes: whole, on cells; also called CXCR4 (I4A/I6A); not shown: FLAG tag
B5: 9SDNsYTEE15 (sTyr12 sulfopeptide) (peptide)
peptide: Ac-SDN[sY]TEE-NH2
SMILES: CC(=O)N[C@@H](CO)C(=O)N[C@@H](CC(=O)O)C(=O)N[C@@H](CC(N)=O)C(=O)N[C@@H](Cc1ccc(OS(=O)(=O)O)cc1)C(=O)N[C@H](C(=O)N[C@@H](CCC(=O)O)C(=O)N[C@@H](CCC(=O)O)C(N)=O)[C@@H](C)O
notes: Synthetic CXCR4 heptapeptide, residues 9-15
B6: 4ISIYTSD10 (unsulfated Tyr7 peptide) (peptide)
peptide: Ac-ISIYTSD-NH2
notes: Synthetic CXCR4 heptapeptide, residues 4-10; also called CXCR4 Ile4-Asp10 heptapeptide
B7: 9SDNYTEE15 (Tyr12 peptide) (peptide)
peptide: Ac-SDNYTEE-NH2
notes: Synthetic CXCR4 heptapeptide, residues 9-15; also called unsulfated Tyr12 peptide
B8: CXCR41-38 (first 38 amino acids of CXCR4 preceded by a GlyMet dipeptide tag) (peptide)
peptide: GMMEGISIYTSDNYTEEMGSGDYDSMKEPAFREENANFNK
notes: range 1-38; Unsulfated recombinant peptide; also called CXCR4 N-terminal domain; CXCR1-38

Tests used:
[1] = target: T1, CXCL121 (constitutively monomeric CXCL12 variant, L55C/I58C) (Felis catus (Cat) (Felis silvestris …, UniProt O62657 22-89, engineered disulfide between Cys55 and Cys58)); test: ΔG = -RT ln Kd at 298 K from the NMR titration
T1 construct: also called CXCL12 locked monomer; LM
T1 sequence (O62657 22-89 L76C/I79C limits assumed): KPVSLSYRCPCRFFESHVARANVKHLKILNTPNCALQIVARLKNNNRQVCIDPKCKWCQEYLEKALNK
Protocol: (§1) Each peptide was acetylated and amidated to create uncharged N- and C-termini, respectively. […] For each titration, the chemical shift change of every residue was used to identify the binding site and calculate the interaction affinity.
(§2) Total peptide additions differed for individual peptide titrations but ranged from 0-160 equivalencies. Spectra were processed using in-house scripts and chemical shift tracking was performed using CARA software. Combined ^1H/^15N chemical shift perturbations were calculated as $((5\ \Delta\delta_H)^2+(\Delta\deltaNH)^2)^{0.5}$, where δ_H and $\deltaNH$ are the amide proton and nitrogen chemical shifts, respectively. Equilibrium dissociation constants (K_d) were determined by non-linear fitting of the combined ^1H/^15N_H chemical shift perturbations as a function of peptide concentration to a single-site quadratic equation. For a given interaction, residues with the largest chemical shift perturbations were fitted individually. The resulting K_d values and their respective fitting errors were then averaged to produce the reported affinity and standard deviation for that interaction.

[2] = target: T2, CXCL12WT (wild type CXCL12) (Homo sapiens (Human), UniProt P48061 22-89); test: ΔG = -RT ln Kd at 298 K from the NMR titration
T2 construct: Recombinant, expressed and purified as previously described; [U-15N]-labelled in the NMR titrations; In monomer-dimer equilibrium; also called stromal cell-derived factor-1; SDF-1
T2 sequence (P48061 22-89 limits assumed): as the sequence (O62657 22-89 L76C/I79C limits assumed) above, with C55L, C58I counted along it
Protocol: as §1, §2

[3] = target: T3, CXCL122 (constitutively dimeric CXCL12 variant, L36C/A65C) (Homo sapiens (Human), UniProt P48061 22-89, disulfide-locked dimer through the engineered cysteines); test: ΔG = -RT ln Kd at 298 K from the NMR titration; non-specific binding to sY21 position
T3 construct: it is described as a variant of CXCL12 containing L36C/A65C mutations; also called CXCL12 locked dimer; LD
T3 sequence (P48061 22-89 L57C/A86C limits assumed): as the sequence (O62657 22-89 L76C/I79C limits assumed) above, with L36C, C55L, C58I, A65C counted along it
Protocol: as §1, §2

[4] = target: T1, CXCL121 (constitutively monomeric …); test: NMR 1H-15N HSQC titration of peptide into 15N-labelled chemokine, chemical shift perturbations fitted to a quadratic binding equation, 298 K
Protocol: as §1, §2

[5] = target: T2, CXCL12WT (wild type CXCL12); test: as above
Protocol: as §1, §2

[6] = target: T3, CXCL122 (constitutively dimeric CXCL12 …); test: ΔG = -RT ln Kd at 298 K from the NMR titration
Protocol: as §1, §2

[7] = target: T3, CXCL122 (constitutively dimeric CXCL12 …); test: NMR 1H-15N HSQC titration of peptide into 15N-labelled chemokine, chemical shift perturbations fitted to a quadratic binding equation, 298 K
Protocol: as §1, §2

[8] = target: T3, CXCL122 (constitutively dimeric CXCL12 …); test: NMR titrations
Protocol: as §1, §2

[9] = target: T2, CXCL12WT (wild type CXCL12); test: 125I-CXCL12 radioligand displacement on CXCR4 II/AA (I4A/I6A); displaced tracer 125I-CXCL12
[10] = target: T1, CXCL121 (constitutively monomeric …); test: NMR titrations (Table 1)
Protocol: as §1, §2

[11] = target: T2, CXCL12WT (wild type CXCL12); test: NMR titrations
Protocol: as §1, §2

Binder | ΔG [1] [kcal/mol] | ΔG [2] [kcal/mol] | ΔG [3] [kcal/mol] | Kd [4] [µM] | Kd [5] [µM] | ΔG [6] [kcal/mol] | Kd [7] [µM] | fold stronger binding than the unsulfated variant [8] [fold] | fold stronger binding than to CXCL12WT or CXCL121 [8] [fold] | binding result [9] | fold stronger binding than the sTyr7 sulfopeptide [10] [fold] | fold higher affinity than the sTyr7 sulfopeptide [11] [fold]
B1 | -3.02 | -3.22 | -4.65 | 6100 | 4300 | – | – | – | – | – | – | –
B2 | -3.81 | -3.74 | – | 1600 | 1800 | -5.01 | 211 | 4 | 20 | – | – | –
B3 | -3.85 | -3.5 | – | 1500 | 2700 | -4.2 | 831 | – | – | – | – | –
B4 | – | – | – | – | – | – | – | – | – | binds | – | –
B5 | -3.74 | -4.09 | -4.87 | 1800 | – | – | – | – | – | – | – | –
B6 | -4.03 | -3.71 | -4.6 | 1100 | 1900 | – | – | – | – | – | ~5 | 2
B7 | -3.5 | -3.65 | – | 2700 | – | -4.74 | – | – | – | – | – | –
B8 | -7.43 | – | – | 3.5 | – | -8.24 | 0.9 | – | – | – | – | –
